For 3 substances, Kd results are on record in article PMC3694778.

By Kd is commonly meant a measure of binding affinity in units of concentration. The low end stands for a tighter complex, the high end for a looser complex.

The subject of series [1] is CLOCK bHLH-PAS-AB;BMAL1 bHLH-PAS-AB (mouse;mouse). The experiment in a line: fluorescence anisotropy competition. The following applies: not given in the material (Supplementary Methods not held).
Series [2] has the same test system. The experiment in a line: fluorescence anisotropy. The following applies: not given in the material (Supplementary Methods not held). A general note: Fluorescence polarisation rises when a labelled molecule tumbles more slowly, as on binding a larger partner.

mPer1 E1-box DNA 18-mer, unlabeled registered a Kd in series [1] of 9 nM.

In the case of mPer2 E2-box DNA 18-mer, unlabeled, the dissociation constant Kd in series [1] was found to be 13 nM.

In turn, mPer2 E2-box DNA, fluorescein labeled displayed a Kd in series [2] of 59 nM.
